Laboratory results as given in patent US20220236279A1.

Target: human atypical chemokine receptor 3 (ACKR3) (human), P25106
Test: binding competition with CXCL12-AF647, flow cytometry
Conditions: chains peptide; remark: other sources report otherwise

human atypical chemokine receptor 3 (ACKR3) (human), P25106, sequence (P25106 whole entry): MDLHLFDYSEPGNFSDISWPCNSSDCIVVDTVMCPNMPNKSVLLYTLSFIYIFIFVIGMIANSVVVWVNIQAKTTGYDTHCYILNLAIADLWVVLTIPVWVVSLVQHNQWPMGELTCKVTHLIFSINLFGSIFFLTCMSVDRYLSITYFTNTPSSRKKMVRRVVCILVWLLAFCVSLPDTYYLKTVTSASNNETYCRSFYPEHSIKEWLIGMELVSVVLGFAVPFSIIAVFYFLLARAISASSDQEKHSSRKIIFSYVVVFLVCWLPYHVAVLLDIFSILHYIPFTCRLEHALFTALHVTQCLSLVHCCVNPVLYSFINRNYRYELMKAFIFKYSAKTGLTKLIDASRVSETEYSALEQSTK

IC50: > 10 µM
B1: nociceptin, Q13519 130-146 (peptide)
chain: FGGFTGARKSARKLANQ
